Holding throughout (assay): cell-based or functional assay
One test concerns the target human glucagon receptor (human, UniProt P47871 26-477).
The target in another test is human GLP-1 receptor (human, UniProt P43220 24-463).
Test [1] deals with human glucagon receptor (hGCGR) (human, UniProt P47871 26-477).
Test [2] deals with human GLP-1 receptor (hGLP-1R) (human, UniProt P43220 24-463).

Starred links: 1 amine or outer side, 2 acyl side, 3 side chain; linkers in the order of their positions; H or OH if unused. Non-standard residues stand in square brackets, D forms with d. Groups on a side chain read outwards from the residue. No end group written: not given here. *: point of attachment. C20 diacid = O=C(O)CCCCCCCCCCCCCCCCCCC(=O)*; C18 diacid = O=C(O)CCCCCCCCCCCCCCCCC(=O)*; γGlu = O=C(O)[C@H](CCC(=O)[*:2])N[*:1]; αMeF = C[C@](N)(Cc1ccccc1)C(=O)O; AEEA = NCCOCCOCC(=O)O; Aib = CC(C)(N)C(=O)O

human glucagon receptor, sequence (P47871 26-477): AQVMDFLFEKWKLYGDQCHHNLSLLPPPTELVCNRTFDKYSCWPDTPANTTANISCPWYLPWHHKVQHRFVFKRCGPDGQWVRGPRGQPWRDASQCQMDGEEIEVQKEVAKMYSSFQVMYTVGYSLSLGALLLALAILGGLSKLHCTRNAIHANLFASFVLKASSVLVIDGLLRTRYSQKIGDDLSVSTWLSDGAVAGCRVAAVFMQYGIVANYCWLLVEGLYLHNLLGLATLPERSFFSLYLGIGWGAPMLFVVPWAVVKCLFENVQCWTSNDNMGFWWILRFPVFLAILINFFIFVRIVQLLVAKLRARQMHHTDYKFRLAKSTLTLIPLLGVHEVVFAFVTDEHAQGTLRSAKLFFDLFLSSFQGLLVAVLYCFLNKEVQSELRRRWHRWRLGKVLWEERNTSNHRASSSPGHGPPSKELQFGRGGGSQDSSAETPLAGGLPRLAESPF
human glucagon receptor (hGCGR), sequence (P47871 26-477): as above

B1: Peptide 227 (peptide)
peptide: H[Aib]HGS[αMeF]TSDVSK[αMeF]LDSRAAK([AEEA-AEEA-γGlu-C18 diacid])D[αMeF]VE[Aib]IANT-NH2
In the case of B1, the “hGluc-R EC50 (pM), cAMP” value with human glucagon receptor was 27.2 pM. The “hGLP-1R EC50 (pM), cAMP” value with human GLP-1 receptor is 70.5 pM.

B2: Peptide 215 (peptide)
peptide: H[Aib]HGS[αMeF]TSDVSK[αMeF]LDSRAAK([AEEA-AEEA-γGlu-C20 diacid])D[αMeF]VQWIANT-NH2
modifications: N-terminus assumed
SMILES: CC[C@H](C)[C@H](NC(=O)[C@H](Cc1c[nH]c2ccccc12)NC(=O)[C@H](CCC(N)=O)NC(=O)[C@@H](NC(=O)[C@](C)(Cc1ccccc1)NC(=O)[C@H](CC(=O)O)NC(=O)[C@H](CCCCNC(=O)COCCOCCNC(=O)COCCOCCNC(=O)CC[C@H](NC(=O)CCCCCCCCCCCCCCCCCCC(=O)O)C(=O)O)NC(=O)[C@H](C)NC(=O)[C@H](C)NC(=O)[C@H](CCCNC(=N)N)NC(=O)[C@H](CO)NC(=O)[C@H](CC(=O)O)NC(=O)[C@H](CC(C)C)NC(=O)[C@](C)(Cc1ccccc1)NC(=O)[C@H](CCCCN)NC(=O)[C@H](CO)NC(=O)[C@@H](NC(=O)[C@H](CC(=O)O)NC(=O)[C@H](CO)NC(=O)[C@@H](NC(=O)[C@](C)(Cc1ccccc1)NC(=O)[C@H](CO)NC(=O)CNC(=O)[C@H](Cc1c[nH]cn1)NC(=O)C(C)(C)NC(=O)[C@@H](N)Cc1c[nH]cn1)[C@@H](C)O)C(C)C)C(C)C)C(=O)N[C@@H](C)C(=O)N[C@@H](CC(N)=O)C(=O)N[C@H](C(N)=O)[C@@H](C)O
With B2, the “hGluc-R EC50 (pM), cAMP” value with human glucagon receptor stood at 2610 pM. Besides, in the test with human GLP-1 receptor, the “hGLP-1R EC50 (pM), cAMP” value was 7620 pM.

B3: Peptide 225 (peptide)
peptide: H[Aib]HGS[αMeF]TSDVSK[αMeF]LDSRAAK([AEEA-AEEA-γGlu-C18 diacid])D[αMeF]VQ[Aib]IANT-NH2
modifications: N-terminus assumed
SMILES: CC[C@H](C)[C@H](NC(=O)C(C)(C)NC(=O)[C@H](CCC(N)=O)NC(=O)[C@@H](NC(=O)[C@](C)(Cc1ccccc1)NC(=O)[C@H](CC(=O)O)NC(=O)[C@H](CCCCNC(=O)COCCOCCNC(=O)COCCOCCNC(=O)CC[C@H](NC(=O)CCCCCCCCCCCCCCCCC(=O)O)C(=O)O)NC(=O)[C@H](C)NC(=O)[C@H](C)NC(=O)[C@H](CCCNC(=N)N)NC(=O)[C@H](CO)NC(=O)[C@H](CC(=O)O)NC(=O)[C@H](CC(C)C)NC(=O)[C@](C)(Cc1ccccc1)NC(=O)[C@H](CCCCN)NC(=O)[C@H](CO)NC(=O)[C@@H](NC(=O)[C@H](CC(=O)O)NC(=O)[C@H](CO)NC(=O)[C@@H](NC(=O)[C@](C)(Cc1ccccc1)NC(=O)[C@H](CO)NC(=O)CNC(=O)[C@H](Cc1c[nH]cn1)NC(=O)C(C)(C)NC(=O)[C@@H](N)Cc1c[nH]cn1)[C@@H](C)O)C(C)C)C(C)C)C(=O)N[C@@H](C)C(=O)N[C@@H](CC(N)=O)C(=O)N[C@H](C(N)=O)[C@@H](C)O
Take B3: the “hGluc-R EC50 (pM), cAMP” value in the test with human glucagon receptor turned out to be 145 pM. In addition, in the test with human GLP-1 receptor, the “hGLP-1R EC50 (pM), cAMP” value was determined as 34.9 pM.

B4: Peptide 148 (peptide)
peptide: H[Aib]QGTFTSDVSK[αMeF]LDSK([AEEA-AEEA-γGlu-C18 diacid])RAQDFVRWIAE[Aib]G-OH
modifications: N-terminus assumed
SMILES: CC[C@H](C)[C@H](NC(=O)[C@H](Cc1c[nH]c2ccccc12)NC(=O)[C@H](CCCNC(=N)N)NC(=O)[C@@H](NC(=O)[C@H](Cc1ccccc1)NC(=O)[C@H](CC(=O)O)NC(=O)[C@H](CCC(N)=O)NC(=O)[C@H](C)NC(=O)[C@H](CCCNC(=N)N)NC(=O)[C@H](CCCCNC(=O)COCCOCCNC(=O)COCCOCCNC(=O)CC[C@H](NC(=O)CCCCCCCCCCCCCCCCC(=O)O)C(=O)O)NC(=O)[C@H](CO)NC(=O)[C@H](CC(=O)O)NC(=O)[C@H](CC(C)C)NC(=O)[C@](C)(Cc1ccccc1)NC(=O)[C@H](CCCCN)NC(=O)[C@H](CO)NC(=O)[C@@H](NC(=O)[C@H](CC(=O)O)NC(=O)[C@H](CO)NC(=O)[C@@H](NC(=O)[C@H](Cc1ccccc1)NC(=O)[C@@H](NC(=O)CNC(=O)[C@H](CCC(N)=O)NC(=O)C(C)(C)NC(=O)[C@@H](N)Cc1c[nH]cn1)[C@@H](C)O)[C@@H](C)O)C(C)C)C(C)C)C(=O)N[C@@H](C)C(=O)N[C@@H](CCC(=O)O)C(=O)NC(C)(C)C(=O)NCC(=O)O
In the case of B4, the “hGluc-R EC50 (pM)” value in test [1] stood at 568 pM. For the same molecule, the “hGLP-1R EC50 (pM)” value in test [2] is 40.2 pM.

B5: Peptide 149 (peptide)
peptide: H[Aib]QGTFTSDVSK[αMeF]LDSK([AEEA-AEEA-γGlu-C18 diacid])RAQDFVRWVVE[Aib]G-OH
modifications: N-terminus assumed
SMILES: CC(C)C[C@H](NC(=O)[C@](C)(Cc1ccccc1)NC(=O)[C@H](CCCCN)NC(=O)[C@H](CO)NC(=O)[C@@H](NC(=O)[C@H](CC(=O)O)NC(=O)[C@H](CO)NC(=O)[C@@H](NC(=O)[C@H](Cc1ccccc1)NC(=O)[C@@H](NC(=O)CNC(=O)[C@H](CCC(N)=O)NC(=O)C(C)(C)NC(=O)[C@@H](N)Cc1c[nH]cn1)[C@@H](C)O)[C@@H](C)O)C(C)C)C(=O)N[C@@H](CC(=O)O)C(=O)N[C@@H](CO)C(=O)N[C@@H](CCCCNC(=O)COCCOCCNC(=O)COCCOCCNC(=O)CC[C@H](NC(=O)CCCCCCCCCCCCCCCCC(=O)O)C(=O)O)C(=O)N[C@@H](CCCNC(=N)N)C(=O)N[C@@H](C)C(=O)N[C@@H](CCC(N)=O)C(=O)N[C@@H](CC(=O)O)C(=O)N[C@@H](Cc1ccccc1)C(=O)N[C@H](C(=O)N[C@@H](CCCNC(=N)N)C(=O)N[C@@H](Cc1c[nH]c2ccccc12)C(=O)N[C@H](C(=O)N[C@H](C(=O)N[C@@H](CCC(=O)O)C(=O)NC(C)(C)C(=O)NCC(=O)O)C(C)C)C(C)C)C(C)C
For B5, in test [1], the “hGluc-R EC50 (pM)” value amounted to 2650 pM. The “hGLP-1R EC50 (pM)” value in test [2] was found to be 8.71 pM.

B6: Peptide 221 (peptide)
peptide: H[Aib]HGS[αMeF]TSDVSK[αMeF]LDSR[Aib]AK([AEEA-AEEA-γGlu-γGlu-C20 diacid])DFVQ[Aib]IANT-NH2
modifications: not fully specified
Take B6: the “hGluc-R EC50 (pM), cAMP” value with human glucagon receptor came to 123 pM. Also, the “hGLP-1R EC50 (pM), cAMP” value with human GLP-1 receptor came to 122 pM.

B7: Peptide 213 (peptide)
peptide: H[Aib]HGS[αMeF]TSDVSK[αMeF]LDSRAAK([AEEA-AEEA-γGlu-γGlu-C20 diacid])DFVEWIANT-NH2
modifications: N-terminus assumed
SMILES: CC[C@H](C)[C@H](NC(=O)[C@H](Cc1c[nH]c2ccccc12)NC(=O)[C@H](CCC(=O)O)NC(=O)[C@@H](NC(=O)[C@H](Cc1ccccc1)NC(=O)[C@H](CC(=O)O)NC(=O)[C@H](CCCCNC(=O)COCCOCCNC(=O)COCCOCCNC(=O)CC[C@H](NC(=O)CC[C@H](NC(=O)CCCCCCCCCCCCCCCCCCC(=O)O)C(=O)O)C(=O)O)NC(=O)[C@H](C)NC(=O)[C@H](C)NC(=O)[C@H](CCCNC(=N)N)NC(=O)[C@H](CO)NC(=O)[C@H](CC(=O)O)NC(=O)[C@H](CC(C)C)NC(=O)[C@](C)(Cc1ccccc1)NC(=O)[C@H](CCCCN)NC(=O)[C@H](CO)NC(=O)[C@@H](NC(=O)[C@H](CC(=O)O)NC(=O)[C@H](CO)NC(=O)[C@@H](NC(=O)[C@](C)(Cc1ccccc1)NC(=O)[C@H](CO)NC(=O)CNC(=O)[C@H](Cc1c[nH]cn1)NC(=O)C(C)(C)NC(=O)[C@@H](N)Cc1c[nH]cn1)[C@@H](C)O)C(C)C)C(C)C)C(=O)N[C@@H](C)C(=O)N[C@@H](CC(N)=O)C(=O)N[C@H](C(N)=O)[C@@H](C)O
As to B7, the “hGluc-R EC50 (pM), cAMP” value with human glucagon receptor is 141 pM. Besides, the “hGLP-1R EC50 (pM), cAMP” value in the test with human GLP-1 receptor turned out to be 534 pM.

B8: Peptide 210 (peptide)
peptide: H[Aib]HGS[αMeF]TSDVSK[αMeF]LDSQAAK([AEEA-AEEA-γGlu-γGlu-C18 diacid])DFVEWIANT-NH2
modifications: N-terminus assumed
SMILES: CC[C@H](C)[C@H](NC(=O)[C@H](Cc1c[nH]c2ccccc12)NC(=O)[C@H](CCC(=O)O)NC(=O)[C@@H](NC(=O)[C@H](Cc1ccccc1)NC(=O)[C@H](CC(=O)O)NC(=O)[C@H](CCCCNC(=O)COCCOCCNC(=O)COCCOCCNC(=O)CC[C@H](NC(=O)CC[C@H](NC(=O)CCCCCCCCCCCCCCCCC(=O)O)C(=O)O)C(=O)O)NC(=O)[C@H](C)NC(=O)[C@H](C)NC(=O)[C@H](CCC(N)=O)NC(=O)[C@H](CO)NC(=O)[C@H](CC(=O)O)NC(=O)[C@H](CC(C)C)NC(=O)[C@](C)(Cc1ccccc1)NC(=O)[C@H](CCCCN)NC(=O)[C@H](CO)NC(=O)[C@@H](NC(=O)[C@H](CC(=O)O)NC(=O)[C@H](CO)NC(=O)[C@@H](NC(=O)[C@](C)(Cc1ccccc1)NC(=O)[C@H](CO)NC(=O)CNC(=O)[C@H](Cc1c[nH]cn1)NC(=O)C(C)(C)NC(=O)[C@@H](N)Cc1c[nH]cn1)[C@@H](C)O)C(C)C)C(C)C)C(=O)N[C@@H](C)C(=O)N[C@@H](CC(N)=O)C(=O)N[C@H](C(N)=O)[C@@H](C)O
Consider B8, for which the “hGluc-R EC50 (pM), cAMP” value with human glucagon receptor came out at 93.7 pM. In addition, the “hGLP-1R EC50 (pM), cAMP” value in the test with human GLP-1 receptor is 156 pM.

B9: Peptide 233 (peptide)
peptide: H[Aib]HGS[αMeF]TSDVSK[αMeF]LDSRAAK([AEEA-AEEA-γGlu-γGlu-C20 diacid])D[αMeF]VQ[Aib]IANTGG-NH2
modifications: N-terminus assumed
SMILES: CC[C@H](C)[C@H](NC(=O)C(C)(C)NC(=O)[C@H](CCC(N)=O)NC(=O)[C@@H](NC(=O)[C@](C)(Cc1ccccc1)NC(=O)[C@H](CC(=O)O)NC(=O)[C@H](CCCCNC(=O)COCCOCCNC(=O)COCCOCCNC(=O)CC[C@H](NC(=O)CC[C@H](NC(=O)CCCCCCCCCCCCCCCCCCC(=O)O)C(=O)O)C(=O)O)NC(=O)[C@H](C)NC(=O)[C@H](C)NC(=O)[C@H](CCCNC(=N)N)NC(=O)[C@H](CO)NC(=O)[C@H](CC(=O)O)NC(=O)[C@H](CC(C)C)NC(=O)[C@](C)(Cc1ccccc1)NC(=O)[C@H](CCCCN)NC(=O)[C@H](CO)NC(=O)[C@@H](NC(=O)[C@H](CC(=O)O)NC(=O)[C@H](CO)NC(=O)[C@@H](NC(=O)[C@](C)(Cc1ccccc1)NC(=O)[C@H](CO)NC(=O)CNC(=O)[C@H](Cc1c[nH]cn1)NC(=O)C(C)(C)NC(=O)[C@@H](N)Cc1c[nH]cn1)[C@@H](C)O)C(C)C)C(C)C)C(=O)N[C@@H](C)C(=O)N[C@@H](CC(N)=O)C(=O)N[C@H](C(=O)NCC(=O)NCC(N)=O)[C@@H](C)O
Consider B9, for which the “hGluc-R EC50 (pM), cAMP” value with human glucagon receptor turned out to be 407 pM.

The values are drawn from patent US20230357348A1 (AstraZeneca / MedImmune, published 2023).
